{"source": "patent US20200377587A1", "key": {"IL-8 (72-mer)": {"target": "IL-8 (72-mer) (UniProt P10145)", "sequence (P10145 28-99 limits assumed)": "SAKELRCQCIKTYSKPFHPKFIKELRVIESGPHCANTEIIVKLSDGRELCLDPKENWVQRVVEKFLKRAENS", "assay": "binding kinetics, FIG. 1B"}, "IL-8 (77-mer)": {"target": "IL-8 (77-mer) (UniProt P10145)", "sequence (P10145 23-99 limits assumed)": "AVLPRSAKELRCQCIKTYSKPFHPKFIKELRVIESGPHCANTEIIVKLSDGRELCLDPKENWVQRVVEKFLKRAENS", "assay": "binding kinetics, FIG. 1B"}, "IL-8 [1]": {"target": "IL-8 (UniProt P10145)", "sequence (P10145 28-99 limits assumed)": "as the sequence (P10145 28-99 limits assumed) above", "assay": "cell-based or functional assay"}, "IL-8 [2]": {"target": "IL-8 (UniProt P10145)", "assay": "SPR, scFv, preliminary KD, lowest and highest value"}, "IL-8 [3]": {"target": "IL-8 (UniProt P10145)", "assay": "SPR, immobilized IL-8, scFv, 25 C"}}, "data": [{"binder": "scFv 49-31 (scFv, part only; not given: linker and domain order, V domains shown, not shown: another chain or arm of the molecule; small tags and cut ends) VH: EVQLVESGGGLVQPGGSLRLSCAASGFTFSSYYMHWVRQAPGKGLEWVSAISGGGSSTYYADSVKGRFTISRDNSKNTLYLQMNSLRAEDTAVYYCARDLRIFEGRDAGFDVWGQGTLVTVS VL: DIQMTQSPSSLSASVGDRVTITCQASQDISNYLNWYQQKPGKAPKLLIYDASNLETGVPSRFSGSGSGTDFTFTISSLQPEDIATYYCQQDDDVPWTFGQGTKVEIK", "values": [{"measurement": "Kd", "setting": "IL-8 (72-mer)", "value": 0.147, "unit": "nM"}, {"measurement": "Kd", "setting": "IL-8 (77-mer)", "value": 0.12, "unit": "nM"}, {"measurement": "reduction of transmigration of neutrophils (IL-8 mediated neutrophil chemotaxis, transwell, 1 nM IL-8, 1.5 and 3 hours)", "setting": "IL-8 [1]", "value": "30 to 70", "unit": "%"}, {"measurement": "Kd", "setting": "IL-8 [2]", "value": "0.009 to 0.048", "unit": "nM"}, {"measurement": "Kd", "setting": "IL-8 [3]", "value": "0.009 to 0.048", "unit": "nM"}]}, {"binder": "scFv 49-1 (scFv, part only; not given: linker and domain order, V domains shown, not shown: another chain or arm of the molecule; small tags and cut ends) VH: EVQLVESGGGLVQPGGSLRLSCAASGFTFSSYWMHWVRQAPGKGLEWVSAISWSGGSTSYADSVKGRFTISRDNSKNTLYLQMNSLRAEDTAVYYCARDLTWWVQAFDVWGQGTLVTVSS VL: DIQMTQSPSSLSASVGDRVTITCQASQDISNYLNWYQQKPGKAPKLLIYDASNLETGVPSRFSGSGSGTDFTFTISSLQPEDIATYYCQQVDDSPLTFGQGTKVEIK", "values": [{"measurement": "Kd", "setting": "IL-8 [3]", "value": 2.66, "unit": "nM"}]}]}
